Assay results reported in patent US20090047211A1.

Columns and labels:
[1] = target: mesothelin-Fc fusion protein (extracellular domain of human mesothelin fused with rabbit IgG Fc) (rabbit; human) (UniProt Q13421); assay: Biacore, affinity to mesothelin-Fc in solution
[2] = target: mesothelin-Fc fusion protein (extracellular domain of human mesothelin fused with rabbit IgG Fc) (rabbit; human) (UniProt Q13421); assay: Western blot on SDS-denatured mesothelin-Fc, MAb 1 µg/ml
[3] = target: mesothelin (native, on mesothelin-expressing human cells and in mesothelioma tissue) (human) (UniProt Q13421); assay: flow cytometry on H226 cells, MAb 1 µg/ml, PE-labeled anti-mouse IgG; conditions: scale: log geometric mean of fluorescence intensity
[4] = target: mesothelin-Fc fusion protein (extracellular domain of human mesothelin fused with rabbit IgG Fc) (rabbit; human) (UniProt Q13421); assay: ELISA on plates coated with mesothelin-Fc, HRP-labeled anti-mouse IgG
[5] = target: mesothelin-Fc fusion protein (extracellular domain of human mesothelin fused with rabbit IgG Fc) (rabbit; human) (UniProt Q13421); assay: ELISA on mesothelin-Fc (summary of Table 1)
[6] = target: mesothelin-Fc fusion protein (extracellular domain of human mesothelin fused with rabbit IgG Fc) (rabbit; human) (UniProt Q13421); assay: Western blot on SDS-denatured mesothelin-Fc
[7] = target: mesothelin-Fc fusion protein (extracellular domain of human mesothelin fused with rabbit IgG Fc) (rabbit; human) (UniProt Q13421); assay: Western blot on mesothelin-Fc (summary of Table 1)

Molecule	Kd [1] [nM]	minimum amount of mesothelin-Fc detected in Western blot [2] [ng]	FACS reactivity to H226 cells (log geometric mean of fluorescence intensity) [3]	amount of MAb that showed OD450 = 0.5 in ELISA [4] [ng/mL]	fold reactivity in ELISA against the K1 and 5B2 antibodies [5] [fold]	fold sensitivity in Western blot against MAbs K1 and 5B2 [6] [fold]	fold sensitivity in Western blot against the K1 and 5B2 antibodies [7] [fold]
MAb K1 (antibody)	12	25	2.5	1000	–	–	–
MAb MB (antibody, IgG2a, V domains shown) VH: EVKLVESGGGLVQPGGSLSLSCAASGFTFTDYYMSWVRQPPGRALEWLGFIRGKANGYTTEYSASVKGRFTISRDYSQSILYLHMNALRAEDSATYSCARYYYSNYVWYFDVWGTGTTVTVSS VL: DIVMTQSQKFMSTSVGDRVSVTCKASQNVGTNVAWYQQKPGLSPKVLIHSASYRFSGVPDRFTGSGSGTDFTLSISNVQSEDLAKYFCQQYNSYPLTFGAGTKLELKR	0.6	2	3.3	1.9	500	10	12
MAb MN (antibody, IgG2a, V domains shown) VH: QVQLQQPGAELVKPGASMKLSCKASGYTFTSYWMHWVKQRPGQGLEWIGMIHPNSDNTIYYEKFKSKATLTVDKSSSTAYMQLSSLTSEDSAVYYCAIIITPVVPKFDYWGQGTTLTVSS VL: DIVMTQSHQFMSTSVGDRVSVTCKASHDVGTSVAWYQQKPGQSPKLLIYWASTRHTGVPDRFTGSGSGTDFTLTISNVQSEDLADYFCQQYSSYPLTFGAGTKLELKR	1	2	3.5	1.1	500	10	12
